The target of this assay is T1, Mannose receptor C type 1 on human monocyte-derived dendritic cells (Homo sapiens, UniProt P22897 19-1456).
T1 construct: also called MRC-1
T1 sequence: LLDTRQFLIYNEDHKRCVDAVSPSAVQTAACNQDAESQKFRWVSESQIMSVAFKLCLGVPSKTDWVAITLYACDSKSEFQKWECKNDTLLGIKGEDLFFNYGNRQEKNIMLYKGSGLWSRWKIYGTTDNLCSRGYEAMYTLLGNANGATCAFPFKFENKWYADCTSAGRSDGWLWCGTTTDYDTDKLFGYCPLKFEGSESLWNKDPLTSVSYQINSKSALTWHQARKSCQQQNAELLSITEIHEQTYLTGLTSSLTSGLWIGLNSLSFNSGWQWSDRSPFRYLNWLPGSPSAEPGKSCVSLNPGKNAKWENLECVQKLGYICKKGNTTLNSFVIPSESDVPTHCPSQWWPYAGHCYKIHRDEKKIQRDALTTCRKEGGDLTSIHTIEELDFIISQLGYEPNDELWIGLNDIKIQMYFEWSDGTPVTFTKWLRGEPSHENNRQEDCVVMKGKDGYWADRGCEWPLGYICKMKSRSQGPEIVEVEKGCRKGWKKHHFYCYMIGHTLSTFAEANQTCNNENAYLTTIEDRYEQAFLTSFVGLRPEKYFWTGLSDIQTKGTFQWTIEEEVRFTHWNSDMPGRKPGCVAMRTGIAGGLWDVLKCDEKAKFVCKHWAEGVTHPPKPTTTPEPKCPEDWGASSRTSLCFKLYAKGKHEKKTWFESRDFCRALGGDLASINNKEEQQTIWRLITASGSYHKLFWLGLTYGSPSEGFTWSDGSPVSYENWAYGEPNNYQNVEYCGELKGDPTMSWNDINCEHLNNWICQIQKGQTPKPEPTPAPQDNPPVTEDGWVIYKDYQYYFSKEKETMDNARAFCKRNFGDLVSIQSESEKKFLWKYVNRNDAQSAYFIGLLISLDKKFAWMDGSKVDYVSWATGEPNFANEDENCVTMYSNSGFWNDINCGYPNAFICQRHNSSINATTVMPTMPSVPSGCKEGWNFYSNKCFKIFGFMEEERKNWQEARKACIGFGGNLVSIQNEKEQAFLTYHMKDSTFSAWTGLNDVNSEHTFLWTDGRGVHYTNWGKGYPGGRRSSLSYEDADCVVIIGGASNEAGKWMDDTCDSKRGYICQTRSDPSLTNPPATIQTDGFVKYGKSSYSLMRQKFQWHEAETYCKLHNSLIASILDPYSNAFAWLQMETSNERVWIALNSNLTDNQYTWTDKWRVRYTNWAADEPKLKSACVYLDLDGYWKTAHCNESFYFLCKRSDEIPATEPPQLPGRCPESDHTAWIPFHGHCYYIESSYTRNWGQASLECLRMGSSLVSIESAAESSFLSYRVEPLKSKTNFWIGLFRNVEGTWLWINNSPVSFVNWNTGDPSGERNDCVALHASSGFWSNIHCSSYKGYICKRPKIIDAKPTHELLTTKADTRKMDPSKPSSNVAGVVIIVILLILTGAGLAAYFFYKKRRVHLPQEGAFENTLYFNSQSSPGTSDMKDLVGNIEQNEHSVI
The experiment in a line: immunofluorescence co-localization in human DCs.

B1: Pneumolysin (purified recombinant) (other)
chain: ANKAVNDFILAMNYDKKKLLTHQGESIENRFIKEGNQLPDEFVVIERKKRSLSTNTSDISVTATNDSRLYPGALLVVDETLLENNPTLLAVDRAPMTYSIDLPGLASSDSFLQVEDPSNSSVRGAVNDLLAKWHQDYGQVNNVPARMQYEKITAHSMEQLKVKFGSDFEKTGNSLDIDFNSVHSGEKQIQIVNFKQIYYTVSVDAVKNPGDVFQDTVTVEDLKQRGISAERPLVYISSVAYGRQVYLKLETTSKSDEVEAAFEALIKGVKVAPQTEWKQILDNTEVKAVILGGDPSSGARVVTGKVDMVEDLIQEGSRFTADHPGLPISYTTSFLRDNVVATFQNSTDYVETKVTAYRNGDLLLDHSGAYVAQYYITWNELSYDHQGKEVLTPKAWDRNGQDLTAHFTTSIPLKGNVRNLSVKIRECTGLAWEWWRTVYEKTDLPLVRKRTISIWGTTLYPQVEDKVEND
notes: also called PLY; Ply
As for B1, the binding result is “binds”.

B2: LLO (W489F) toxoid (other)
chain: KDASAFNKENSISSMAPPASPPASPKTPIEKKHADEIDKYIQGLDYNKNNVLVYHGDAVTNVPPRKGYKDGNEYIVVEKKKKSINQNNADIQVVNAISSLTYPGALVKANSELVENQPDVLPVKRDSLTLSIDLPGMTNQDNKIVVKNATKSNVNNAVNTLVERWNEKYAQAYPNVSAKIDYDDEMAYSESQLIAKFGTAFKAVNNSLNVNFGAISEGKMQEEVISFKQIYYNVNVNEPTRPSRFFGKAVTKEQLQALGVNAENPPAYISSVAYGRQVYLKLSTNSHSTKVKAAFDAAVSGKSVSGDVELTNIIKNSSFKAVIYGGSAKDEVQIIDGNLGDLRDILKKGATFNRETPGVPIAYTTNFLKDNELAVIKNNSEYIETTSKAYTDGKINIDHSGGYVAQFNISWDEINYDPEGNEIVQHKNWSENNKSKLAHFTSSIYLPGNARNINVYAKECTGLAFEWWRTVIDDRNLPLVKNRNISIWGTTLYPKYSNSVDNPIE
Take B2: the binding result is listed as “no binding (tested: 0.2 µg/ml)”.
